From US10662235B2, “Cysteine engineered fibronectin type III domain binding molecules” (Janssen Biotech, Inc., priority 2016, dated 2020)

B1: ECB5: bispecific P53A1R5-17v2 / P114AR7P94-A3, (GGGGS)4, SEQ ID 54 (protein)
chain: MLPAPKNLVVSEVTEDSARLSWADPHGFYDSFLIQYQESEKVGEAIVLTVPGSERSYDLTGLKPGTEYTVSIYGVHNVYKDTNMRGLPLSAIFTTGGGGSGGGGSGGGGSGGGGSMLPAPKNLVVSRVTEDSARLSWTAPDAAFDSFWIRYFEFLGSGEAIVLTVPGSERSYDLTGLKPGTEYVVNIMGVKGGKISPPLSAIFTT
modifications: bispecific EGFR/cMet binding molecule
B2: P54CR4-31: EGFR-binding FN3 domain, SEQ ID NO: 26 (protein)
chain: LPAPKNLVVSEVTEDSLRLSWTAPDAAFDSFLIQYQESEKVGEAINLTVPGSERSYDLTGLKPGTEYTVSIYGVLGSYVFEHDVMLPLSAEFTT
modifications: EGFR binding FN3 domain

How the values were obtained:
EGFR in NCI-H292 cells = target: T1, EGFR in NCI-H292 cells (Homo sapiens, UniProt P00533); assay: Inhibition of EGFR phosphorylation in NCI-H292 cells; type: cell-based; conditions: H292 cells (FIG. 7A)
T1 construct: EGF-stimulated phosphorylation of EGFR in the human tumor cell line NCI-H292; host or cells: NCI-H292
Protocol: Purified EGFR-binding FN3 domains were tested for their ability to inhibit EGF-stimulated phosphorylation of EGFR in A431 cells at a single concentration. EGFR phosphorylation was monitored using the EGFR phospho(Tyr1173) kit (Meso Scale Discovery). Cells were plated at 20,000/well in clear 96-well tissue culture-treated plates (Nunc) in 100 μL/well of RPMI medium (Gibco) containing GlutaMAX™ with 10% fetal bovine serum (FBS) (Gibco) and allowed to attach overnight at 37° C. in a humidified 5% CO2 atmosphere. Culture medium was removed completely and cells were starved overnight in 100 μL/well of medium containing no FBS at 37° C. in a humidified 5% CO2 atmosphere. […] Signals were detected by addition of 150 μL/well of Read Buffer (Meso Scale Discovery) and reading on a SECTOR® Imager 6000 instrument (Meso Scale Discovery) using manufacturer-installed assay-specific default settings. Percent inhibition of the EGF-stimulated positive control signal was calculated for each EGFR-binding FN3 domain.
NCI-H292, NCI-H441, or NCI-H596 cells were plated in 96 well plates in RPMI medium containing 10% FBS. […] Cells were lysed with MSD Lysis Buffer and cell signaling was assessed using appropriate MSD Assay plates, according to manufacturer's instructions, as described above. […]

EGFR in NCI-H596 cells = target: T2, EGFR in NCI-H596 cells (Homo sapiens, UniProt P00533); assay: Inhibition of EGFR phosphorylation in NCI-H596 cells; type: cell-based; conditions: H596 cells (FIG. 7B)
T2 construct: endogenous in cells; host or cells: NCI-H596
Protocol: NCI-H292, NCI-H441, or NCI-H596 cells were plated in 96 well plates in RPMI medium containing 10% FBS. 24 hours later, medium was replaced with serum free RPMI. […] Cells were treated for 1 h with the monospecific or bispecific molecules and then stimulated with EGF, HGF, or a combination of EGF and HGF for 15 minutes at 37° C., 5% CO2. Cells were lysed with MSD Lysis Buffer and cell signaling was assessed using appropriate MSD Assay plates, according to manufacturer's instructions, as described above.

EGFR on A431 cells = target: T3, EGFR on A431 cells (Homo sapiens, UniProt P00533); assay: A431 cell binding assay; conditions: purified FN3 domains
T3 construct: A431 cells (American Type Culture Collection, cat. # CRL-1555) over-express EGFR; host or cells: A431
Protocol: To assess the ability of different FN3 domains to bind EGFR in a more physiological context, their ability to bind A431 cells was measured. A431 cells (American Type Culture Collection, cat. # CRL-1555) over-express EGFR with ˜2×10^6 receptors per cell. Cells were plated at 5,000/well in opaque black 96-well plates and allowed to attach overnight at 37° C., in a humidified 5% CO2 atmosphere. FN3 domain-expressing bacterial lysates were diluted 1,000-fold into FACS stain buffer (Becton Dickinson) and incubated for 1 hour at room temperature in triplicate plates. Lysates were removed and cells were washed 3 times with 150 μL/well of FACS stain buffer. Cells were incubated with 50 μL/well of anti-penta His-Alexa488 antibody conjugate (Qiagen) diluted 1:100 in FACS stain buffer for 20 minutes at room temperature. Cells were washed 3 times with 150 μL/well of FACS stain buffer, after which wells were filled with 100 μL of FACS stain buffer and read for fluorescence at 488 nm using an Acumen eX3 reader. […]
A431 cells were plated at 5,000/well in opaque black 96-well plates and allowed to attach overnight at 37° C., in a humidified 5% CO2 atmosphere. […] Cells were washed 3 times with 150 μL/well of FACS stain buffer, after which wells were filled with 100 μL of FACS stain buffer and read for fluorescence at 488 nm using an Acumen eX3 reader. […]

Molecule | inhibition of phosphorylation of EGFR, bispecific vs monospecific (EGFR in NCI-H292 cells) | inhibition of phosphorylation of EGFR, bispecific vs monospecific (EGFR in NCI-H596 cells) | EC50 (EGFR on A431 cells) [µM]
B1 | comparable | comparable | –
B2 | – | – | > 20
